From article PMC5004352

Target: SoPIP2;1 wild type (Spinacia oleracea)
Assay: SDS-PAGE (SDS-resistant oligomers); purified protein mixed with SDS sample loading buffer (125 mM Tris-HCl pH 6.8, 20% glycerol, 4% SDS), 10 min at room temperature, 12% gel, Coomassie; WT also pre-incubated with DTT or β-mercaptoethanol for varying times; WT against mutants with 10% β-mercaptoethanol in the loading buffer; monomer to dimer

## SoPIP2;1 wild type (natural protein)
  stoichiometry N: 2
